Data: paper PMC10498682, “Selection of optimised ligands by fluorescence-activated bead sorting†”

B1: MinE07UA-Biotin (structured_RNA)
RNA: CGGAUUUAAUCGCCGUAGAAAAGCAUGUCAAAGCCGGAACCGUCC
modifications: 2'-F on all C and U; 5-phenyl-U at 6,7,43 (U2,U3,U8); 5-iodo-U at 16 (U5); lacks 5' GGA
B2: MinE07UC-Biotin (structured_RNA)
RNA: GGAUUUAAUCGCCGUAGAAAAGCAUGUCAAAGCCGGAACCGUCC
modifications: 2'-F on all C and U; 5-vinyl-U at 4,27 (U1,U7); 5-phenyl-U at 25 (U6); lacks 5' GGAC

Biological target: EGFR extracellular domain, Fc fusion (EGFR-Fc) (UniProt P00533 25-644)
Assay: ELISA-type plate assay; EGFR-Fc on protein A 96-well plates, biotinylated aptamer, streptavidin-AP chemiluminescence, n = 3; buffer, salt, pH and temperature not in the material
Conditions: protein: recombinant; tags: Fc; chain copies: 2; label: 5'-biotin; single strand

Row | Binder | Kd
1 | B1 | 1.53 ± 0.13 nM
2 | GGACGGAUUUAAUCGCCGUAGAAAAGCAUGUCAAAGCCGGAACCGUCC (structured_RNA, 2'-F on all C and U; 5-phenyl-U at 9,10,19 (U2,U3,U5); 5-iodo-U at 13 (U4)) [MinE07UB-Biotin] | 1.47 ± 0.54 nM
3 | GGACGGAUUUAAUCGCCGUAGAAAAGCAUGUCAAAGCCGGAACCGUCC (structured_RNA, 2'-F on all C and U; 5-phenyl-U at 9,10,46 (U2,U3,U8); 5-iodo-U at 19 (U5)) [MinE07UA'-Biotin] | 3.39 ± 0.71 nM
4 | GGACGGAUUUAAUCGCCGUAGAAAAGCAUGUCAAAGCCGGAACCGUCC (structured_RNA, 2'-F on all C and U; 5-iodo on all 8 U (8,9,10,13,19,29,31,46)) [MinE07-U-I-Biotin] | 2.05 ± 0.26 nM
5 | GGACGGAUUUAAUCGCCGUAGAAAAGCAUGUCAAAGCCGGAACCGUCC (structured_RNA, 2'-F on all C and U; 5-phenyl on all 8 U (8,9,10,13,19,29,31,46)) [MinE07-U-Ph-Biotin] | 3.59 ± 0.82 nM
6 | GGACGGAUUUAAUCGCCGUAGAAAAGCAUGUCAAAGCCGGAACCGUCC (structured_RNA, 2'-F on all C and U; 5-vinyl-U at 8,31 (U1,U7); 5-phenyl-U at 29 (U6)) [MinE07UC'-Biotin] | 1.11 ± 0.45 nM
7 | GGACGGAUUUAAUCGCCGUAGAAAAGCAUGUCAAAGCCGGAACCGUCC (structured_RNA, 2'-F on all C and U; 5-vinyl on all 8 U (8,9,10,13,19,29,31,46)) [MinE07-U-Vi-Biotin] | 4.62 ± 0.48 nM
8 | B2 | 1.23 ± 0.1 nM

Same assay, conditions: protein: recombinant; tags: Fc; chain copies: 2; label: 5'-biotin; single strand; 5' and 3' ends base pair, three loops (predicted)

Row | Binder | Kd
9 | GGACGGAUUUAAUCGCCGUAGAAAAGCAUGUCAAAGCCGGAACCGUCC (structured_RNA, 2'-F on all C and U; A and G ribo) [MinE07-Biotin] | 3.7 ± 0.38 nM
